T1: mouse CD7 (ACROBiosystems, CD7-M52H3) (mouse, UniProt P50283 24-150)
T1 construct: Bought recombinant protein; also called Mouse CD7 protein
T1 sequence (looked up): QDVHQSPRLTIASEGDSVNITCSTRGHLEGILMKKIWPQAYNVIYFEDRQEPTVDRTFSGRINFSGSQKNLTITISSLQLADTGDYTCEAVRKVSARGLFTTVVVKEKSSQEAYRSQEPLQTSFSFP

T2: recombinant protein of the human CD7 extracellular domain, CD7-His (human, UniProt P09564 26-180)
T2 construct: range 25-645; also called human CD7-His protein; recombinant human CD7; not shown: His protein tag
T2 sequence (looked up): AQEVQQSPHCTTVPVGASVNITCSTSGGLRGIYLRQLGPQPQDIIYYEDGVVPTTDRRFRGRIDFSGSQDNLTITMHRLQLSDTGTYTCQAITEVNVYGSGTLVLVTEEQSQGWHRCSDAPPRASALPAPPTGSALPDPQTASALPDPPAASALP

B1: AHP19485 (Fc fusion)
chain: EVQLVESGGGLVQPGGSLRLSCASSERIFSIHAMGWYRQAPGKQRELVASITIGGSTHYADSVKGRFTISRDNAKNTVYLHMNSLKPEDTAVYYCNSMLLAGTVGGSWGQGTQVTVSS
notes: Alpaca VHH expressed as fusion to human IgG1 Fc; also called AHP19485-VHH; not shown: human IgG1 Fc of expression vector pcDNA3.4-Fc (HuIgG1)
B2: AHP19484 (Fc fusion)
chain: QVKLEESGGGLVQPGGSLRLSCVASGSSFHFAFMGWYRQAPGKQRELVADISPGNSTNYADPVKGRFVISRDNAKNTVYLQMNSLKPEDTAVYFCRDLRSWGAWGRGTQVTVSS
notes: Alpaca VHH expressed as fusion to human IgG1 Fc; also called AHP19484-VHH; not shown: human IgG1 Fc of expression vector pcDNA3.4-Fc (HuIgG1)
B3: AHP19509 (Fc fusion)
chain: QVKLEESGGGLVQAGGSLRLSCAASGGTFNRYTMGWFRQAPGKEREFVAAISWSGGSTDYADSVKGRFTISRDNTKNTVYLQMNSLKPEDAAVYYCDTDRMPYRPVAAGILSWEANWGQGTQVTVSS
notes: Alpaca VHH expressed as fusion to human IgG1 Fc; also called AHP19509-VHH; not shown: human IgG1 Fc of expression vector pcDNA3.4-Fc (HuIgG1)

Key:
[1] = target: T1, mouse CD7 (ACROBiosystems, CD7-M52H3); assay: indirect ELISA, plate coated with 1 µg/ml mouse CD7
[2] = target: T2, recombinant protein of the human CD7 …; assay: SPR Biacore T200, antibody captured via Fc, human CD7 as analyte
[3] = target: T2, recombinant protein of the human CD7 …; assay: indirect ELISA, plate coated with 1 µg/ml human CD7, anti-human IgG Fc-HRP
[4] = target: T3, monkey CD7 (Sino Biological, 90993-H08H) (monkey); assay: indirect ELISA, plate coated with 1 µg/ml monkey CD7, anti-human IgG Fc-HRP
T3 construct: Bought recombinant protein; also called Monkey CD7 protein

Binder	binding result [1]	Kd [2] [nM]	koff [2] [s⁻¹]	kon [2] [M⁻¹ s⁻¹]	EC50 [3] [nM]	EC50 [4] [nM]
B1	no binding (tested: 8 µg/ml (about 100 nM))	0.289	7.73e-05	268000	0.168	
B2	no binding (tested: 8 µg/ml (about 100 nM))	0.12	6.03e-05	502000	0.278	7.03
B3	no binding (tested: 8 µg/ml (about 100 nM))	0.0765	2.3e-05	301000	0.209	
